B1: Formate dehydrogenase, O13437 (parent)
chain: MKIVLVLYDAGKHAADEEKLYGCTENKLGIANWLKDQGHELITTSDKEGETSELDKHIPDADIIITTPFHPAYITKERLDKAKNLKLVVVAGVGSDHIDLDYINQTGKKISVLEVTGSNVVSVAEHVVMTMLVLVRNFVPAHEQIINHDWEVAAIAKDAYDIEGKTIATIGAGRIGYRVLERLLPFNPKELLYYDYQALPKEAEEKVGARRVENIEELVAQADIVTVNAPLHAGTKGLINKELLSKFKKGAWLVNTARGAICVAEDVAAALESGQLRGYGGDVWFPQPAPKDHPWRDMRNKYGAGNAMTPHYSGTTLDAQTRYAEGTKNILESFFTGKFDYRPQDIILLNGEYVTKAYGKHDKK
B2: FMN-dependent NADH:quinone oxidoreductase 1, Q88IY3 (parent)
chain: MKLLHIDSSILGDNSASRQLSREVVEAWKAADPSVEVVYRDLAADAIAHFSAATLVAAGTPEDVRDAAQAFEAKLSAETLEEFLAADAVVIGAPMYNFTVPTQLKAWIDRVAVAGKTFRYTEAGPQGLCGNKKVVLVSTAGGLHAGQPTGAGHEDFLKVFLGFIGITDLEIVRAHGLAYGPEQRSQAIDAAQAQIASELFAAA

Variants of: B1
Details: Candida boidinii; whole UniProt chain shown

| Variant | Tm [°C] |
| --- | --- |
| MKIVLVLYDAGKHAADEEKLYGCTENKLGIANWLKDQGHELITTSDKEGETSELDKHIPDADIIITTPFHPAYITKERLDKAKNLKLVVVAGVGSDHIDLDYINQTGKKISVLEVTGSNVVSVAEHVVMTMLVLVRNFVPAHEQIINHDWEVAAIAKDAYDIEGKTIATIGAGRIGYRVLERLLPFNPKELLYYDYQALPKEAEEKVGARRVENIEELVAQADIVTVNAPLHAGTKGLINKELLSKFKKGAWLVNTARGAICVAEDVAAALESGQLRGYGGDVWFPQPAPKDHPWRDMRNKYGAGNAMTPHYSGTTLDAQTRYAEGTKNILEYFFTGKFDYRPQDIILLNGEYVTKAYGKHDKK [S333Y] | 55 |
| MKIVLVLYDAGKHAADEEKLYGCTENKLGIANWLKDQGHELITTSDKEGETSELDKHIPDADIIITTPFHPAYITKERLDKAKNLKLVVVAGVGSDHIDLDYINQTGKKISVLEVTGSNVVSVAEHVVMTMLVLVRNFVPAHEQIINHDWEVAAIAKDAYDIEGKTIATIGAGRIGYRVLERLLPFNPKELLYYDYQALPKEAEEKVGARRVENIEELVAQADIVTVNAPLHAGTKGLINKELLSKFKKGAWLVNTARGAICVPEDVAAALESGQLRGYGGDVWFPQPAPKDHPWRDMRNKYGAGNAMTPHYSGTTLDAQTRYAEGTKNILESFFTGKFDYRPQDIILLNGEYVTKAYGKHDKK [A264P] | 59 |

Variants of: B2
Details: Pseudomonas putida (strain ATCC 47054 / DSM 6125 / CFBP 8728 / NCIMB 11950 / KT2440); Fluorescence spectroscopy; whole UniProt chain shown

| Variant | Tm [°C] | ddG of mutation (higher = less stable) [kcal/mol] |
| --- | --- | --- |
| MKLLHIDSSILGDNSASRQLSREVVEAWKAADPSVEVVYRDLAADPIAHFSAATLVAAGTPEDVRDAAQAFEAKLSAETLEEFLAADAVVIGAPMYNFTVPTQLKAWIDRVAVAGKTFRYTEAGPQGLSGNKKVVLVSTAGGLHAGQPTGAGHEDFLKAFLGFIGITDLEIVRAHGLAYGPEQRSQAIDAARAQIASELFAAA [Q192R A46P V159A C129S] | 51 | -0.6 |
| MKLLHIDSSILGDNSASRQLSREVVEAWKAADPSVEVVYRDLAADPIPHFSAATLVAAGTPEDVRDAAQAFEAKLSAETLEEFLAADAVVIGAPMYNFTVPTQLKAWIDRVAVAGKTFRYTEAGPQGLCGNKKVVLVSTAGGLHAGQPTGAGHEDFLKAFLGFIGITDLEIVRAHGLAHGPEQRSQAIDAARAQIASELFAAA [Q192R A46P V159A A48P Y179H] | 55 | -0.3 |
| MKLLHIDSSILGDNSASRQLSREVVEAWKAADPSVEVVYRDLAADPIAHFSAATLVAAGTPEDVRDAAQAFEAKLSAETLEEFLAADAVVIGAPMYNFTVPTQLKAWIDRVAVAGKTFRYTEAGPQGLCGNKKVVLVSTAGGLHAGQPTGAGHEDFLKAFLGFIGITDLEIVRAHGLAYGPEQRSQAIDAARAQIASELFAAA [Q192R A46P V159A] | 55 | -0.8 |
| MKLLHIDSSILGDNSASRQLSREVVEAWKAADPSVEVVYRDLAADPIAHFSAATLVAAGTPEDVRDAAQAFEAKLSAETLEEFLAADGVVIGAPMYNFTVPTQLKAWIDRVAVAGKTFRYTEAGPQGLSGDKKVVLVSTAGGQHAGQPTGAGHEDFLKAFLGFIGITDLEIVRAHGLDYGPEQRSQAIDAARAQIASELFAAA [Q192R A46P V159A C129S A178D A88G N131D L143Q] | 44 | -1.9 |
| MKLLHIDSSILGDNSASRQLSREVVEAWKAADPSVEVVYRDLAADPIPHFSAATLVAAGTPEDVRDAAQAFEAKLSAETLEEFLAADAVVIGAPMYNFTVPTQLKAWIDRVAVAGKTFRYTEAGPQGLCGNKKVVLVSTAGGLHAGQPTGAGHEDFLKAFLGFIGITDLEIVRAHGLAYGPEQRSQAIDAARAQIASELFAAA [Q192R A46P V159A A48P] | 55 | 3.3 |
| MKLLHIHSSILGDNSASRQLSREVVEAWKAADPSVEVVYRDLAADPIAHFSAATLVAAGTPEDVRDAAQAFEAKLSAETLEEFLAADAVVIGAPMYNFTVPTQLKAWIDRVAVAGKTFRYTEAGPQGLSGNKKVVLVSTAGGLHAGQPTGAGHEDFLKAFLGFIGITDLEIVRAHGLDYGPEQRSQAIDAARAQIASELFAAA [Q192R A46P V159A C129S D7H A178D] | 54 | 1.5 |

Reference: FireProtDB
